Entries after “also recorded” stand apart in the source; their conditions may differ.

Assay [1] concerns OX40L. The assay is described as follows: OX40L expression on DCs (staining). It is filed as cell-based, human. The note with it: DCs exposed for 2 days, stained for OX40L. Here is the method:
A) DCs were exposed to MMP-2 […] or zymosan […], a known activator of NF-κB that acts via TLR2, for the indicated time. Cytosolic and nuclear fractions were isolated and p50 contents were measured by ELISA. […] C) OX40L over-expression on DCs induced by MMP-2 is inhibited by an inhibitor of NEMO, the NEMO binding domain (NBD) peptide, but not by the corresponding negative control, a NBD mutant.
(§1) A) DCs were exposed to various TLR agonists for 2 days before cells were stained for OX40L. […] B) TLR2-transfected and engineered HEK cells were incubated with MMP-2 (5 mg/ml) or various controls. All conditions were also tested in the presence of a blocking antibody for TLR2. TNFα was used to activate NF-κB in a TLR-independent manner. Twenty hours later, NF-κB activation was measured.
Antibody to OX40L (11C3.1) was from Biolegend. Blocking antibodies to TLR-2 and TLR-6 were from Invivogen. Antibodies to GATA-3, IL-4 (8D4-8), IL-5 (JES1-39D10), IL-13 (JES10-5A2), TNFα (MAb11), IFNγ (25723.11), perforin (δG9), GranzymeB (GB11), CD40 (5C3), CD80 (L307.4), CD83 (HB15e), CD86 (IT2.2), HLA-DR (TU36), fluorescein isothiocyanate-conjugated antibodies to CD45RA (HI100) and CD45RO (UCHL1), and antibody to CD4 (RPA-T4) were purchased from BD Biosciences Pharmingen. Alexa fluor 488-conjugated antibody to IL-17 (eBio64DEC17), phycoerythrine-conjugated antibody to T-bet (4B10).
(§2) PBMCs were purified from healthy-(HD) or cord blood- (CB) donors and plated at 40×10^6 cells/10 mL/dish in complete IMDM with 5% PHS. Cells were allowed to adhere for 2 h at 37° C. Non-adherent cells were removed. The monocyte-enriched fraction was supplemented with 100 UI/mL rhGMCSF and 300 UI/mL rhIL-4 (R&D Systems) on days 0, 2 and 4. Immature DCs were harvested on day 5 and matured using poly(I:C) at 5 μg/mL/10^6 DCs (Amersham). Secretion of IL-12p70, TNFα, IL-1β, IL-6, IL-8 and IL-10 was assessed on both immature and mature DCs using the Human Inflammatory Cytokine Cytometric Bead Array (BD Pharmingen).

For assay [2], the system named is DCs. The assay is described as follows: Inflammatory cytokine secretion by DCs (cytokine bead array). The note with it: MMP-2 0.5 and 5 mg/ml, active or inactive; supernatants after eighteen hours. It counts as cell-based, human. Here is the method: DCs were exposed to MMP-2 (0.5 and 5 mg/ml) in various forms: active, heat-inactivated (HI), inhibited by a specific inhibitor (IMMP-2), PEX (last third of MMP-2, amino acids 445-635 of SEQ ID NO: 1), overlapping peptides (20-mer) spanning MMP-2, or controls. Eighteen hours later, supernatants were harvested and TNFα, IL-6, IL-8 and […] levels were measured by cytokine bead array.
as §2

The target of assay [3] is T1, human TLR-2 (Homo sapiens, UniProt O60603).
T1 construct: host or cells: HEK293 (HEK-Blue-hTLR2 cells)
The assay is described as follows: HEK-Blue-hTLR2 NF-κB SEAP reporter assay. It is filed as cell-based. Conditions: MMP-2 5 mg/ml; twenty hours; with/without TLR2 blocking antibody. Here is the method: as §1
TLR2-transfected and engineered HEK cells were incubated with MMP-2 (5 mg/ml), TLR2 agonists, recombinant PEX and 3 pools of overlapping 20-mers covering MMP-2. OLP1: mix of 22 overlapping peptides covering MMP-2 from amino-acid 1 to 220; OLP2: mix of 22 overlapping peptides covering MMP-2 from amino-acid 210 to 440; OLP3: mix of 22 overlapping peptides covering MMP-2 from amino-acid 450 to 660. Twenty hours later, NF-κB activation was measured. Neither PEX nor the peptides triggered NF-κB signaling.
TLR-2-transfected (stably) HEK-Blue™ Cells represent a very efficient high throughput reagent for screening due to an easy read-out. […] Levels of SEAP can be readily determined with QUANTI-Blue™, a detection medium that turns purple/blue in the presence of alkaline phosphatase. […] Inhibition of NF-κB activation by any agents/molecules can be assessed and confirmed in DCs (which endogenously express TLR2 or are engineered to express exogenous TLR2) in order to corroborate the initial screening results in a native or more natural context. […] TLR-2-expressing cells, such as those described herein, can be incubated with agents/molecules and molecular interactions assessed using methods, such as, e.g., co-immunoprecipitation of MMP-2 and TLR-2 from the cell lysates. […] Additional methods can be used to evaluate if MMP-2 and TLR-2 interact directly, including other affinity-based methods (e.g., affinity chromatography or panning), competitive inhibition assays, and various visualization techniques, such as fluorescence resonance energy transfer (FRET) and others which are known in the art. […]
(In general: In a reporter assay the amount or activity of a reporter protein is the signal.)

T1 sequence (O60603 21-784): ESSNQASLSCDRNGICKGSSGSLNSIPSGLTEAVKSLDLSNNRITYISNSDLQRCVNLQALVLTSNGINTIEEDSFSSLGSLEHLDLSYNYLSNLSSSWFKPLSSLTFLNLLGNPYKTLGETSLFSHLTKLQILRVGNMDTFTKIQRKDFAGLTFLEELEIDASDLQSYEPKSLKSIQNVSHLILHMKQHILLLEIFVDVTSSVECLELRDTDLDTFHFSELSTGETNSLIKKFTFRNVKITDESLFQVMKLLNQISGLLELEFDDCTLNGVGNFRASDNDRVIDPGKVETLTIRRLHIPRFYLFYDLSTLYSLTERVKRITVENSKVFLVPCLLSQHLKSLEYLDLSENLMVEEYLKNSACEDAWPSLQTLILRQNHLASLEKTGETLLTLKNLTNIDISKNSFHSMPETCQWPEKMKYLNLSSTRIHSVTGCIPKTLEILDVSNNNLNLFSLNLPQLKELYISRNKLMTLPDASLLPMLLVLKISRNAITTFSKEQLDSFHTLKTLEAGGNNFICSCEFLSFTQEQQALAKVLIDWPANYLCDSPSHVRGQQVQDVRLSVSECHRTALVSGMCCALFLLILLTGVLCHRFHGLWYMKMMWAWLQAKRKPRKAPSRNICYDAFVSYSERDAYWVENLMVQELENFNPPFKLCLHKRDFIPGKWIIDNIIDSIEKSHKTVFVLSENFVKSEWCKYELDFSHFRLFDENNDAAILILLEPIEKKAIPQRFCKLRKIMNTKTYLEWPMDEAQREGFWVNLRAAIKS

B1: matrix metalloproteinase-2 (protein)
chain: YNFFPRKPKWDKNQITYRIIGYTPDLDPETVDDAFARAFQVWSDVTPLRFSRIHDGEADIMINFGRWEHGDGYPFDGKDGLLAHAFAPGTGVGGDSHFDDDELWTLGEGQVVRVKYGNADGEYCKFPFLFNGKEYNSCTDTGRSDGFLWCSTTYNFEKDGKYGFCPHEALFTMGGNAEGQPCKFPFRFQGTSYDSCTTEGRTDGYRWCGTTEDYDRDKKYGFCPETAMSTVGGNSEGAPCVFPFTFLGNKYESCTSAGRSDGKMWCATTANYDDDRKWGFCPDQGYSLFLVAAHEFGHAMGLEHSQDPGALMAPIYTYTKNFRLSQDDIKGIQELYGASPDIDLGTGPTPTLGPVTPEICKQDIVFDGIAQIRGEIFFFKDRFIWRTVTPRDKPMGPLLVATFWPELPEKIDAVYEAPQEEKAVFFAGNEYWIYSASTLERGYPKPLTSLGLPPDVQRVDAAFNWSKNKKTYIFAGDKFWRYNEVKKKMDPGFPKLIADAWNAIPDNLDAVVDLQGGGHSYFFKGAYYLKLENQSLKSVKFGSIKSDWLGC
For the molecule B1, in assay [1], the “OX40L expression on DCs” value was “induce OX40L expression”. Further, the “inflammatory cytokine secretion by DCs (TNFα, IL-6, IL-8, IL-1β)” value in assay [2] is listed as “secrete inflammatory cytokines; also recorded: significantly expressed”. The “NF-κB activation in TLR2-transfected HEK cells” value in assay [3] is recorded as “activates NF-κB through TLR-2 triggering; also recorded: activate NF-κB in a TLR2-dependent manner”.

The values are drawn from patent US9539315B2, “Methods, agents and peptides for inhibiting matrix metalloproteinase-2 signaling” (New York University, priority 2011, dated 2017).
